Reference: article PMC2615004

Molecular target: photosynthetic reaction center from Rhodobacter sphaeroides, native (strain R26) (Rhodobacter sphaeroides) (UniProt P0C0Y8)
Experiment: flash absorption spectroscopy

dH: 54 meV
Substance: cytochrome c2 from Rhodobacter sphaeroides (from UniProt P0C0X8 1-124) (natural protein)
